Molecular target: FLAG-Tat (p3XFLAG-CMV-Tat, wild type) (HIV-1) (UniProt P04608)
Assay: cell-based or functional assay

HA-IκB-α 72-287 (pCMV4-HA-IκB-α 72-287, expressed in transfected cells) (from UniProt P25963 72-287)
translocation of Tat from the nucleus to the cytoplasm (confocal microscopy, HeLa cells) (% of the analyzed cells): 50

— patent US20100093618A1
